In patent publication US20220356229A1 (published 2022):
Where a chain is given by its changes, count along the chain named.

T1: HKU1 full length Spike (human coronavirus HKU1, UniProt Q5MQD0 13-1276)
T1 sequence: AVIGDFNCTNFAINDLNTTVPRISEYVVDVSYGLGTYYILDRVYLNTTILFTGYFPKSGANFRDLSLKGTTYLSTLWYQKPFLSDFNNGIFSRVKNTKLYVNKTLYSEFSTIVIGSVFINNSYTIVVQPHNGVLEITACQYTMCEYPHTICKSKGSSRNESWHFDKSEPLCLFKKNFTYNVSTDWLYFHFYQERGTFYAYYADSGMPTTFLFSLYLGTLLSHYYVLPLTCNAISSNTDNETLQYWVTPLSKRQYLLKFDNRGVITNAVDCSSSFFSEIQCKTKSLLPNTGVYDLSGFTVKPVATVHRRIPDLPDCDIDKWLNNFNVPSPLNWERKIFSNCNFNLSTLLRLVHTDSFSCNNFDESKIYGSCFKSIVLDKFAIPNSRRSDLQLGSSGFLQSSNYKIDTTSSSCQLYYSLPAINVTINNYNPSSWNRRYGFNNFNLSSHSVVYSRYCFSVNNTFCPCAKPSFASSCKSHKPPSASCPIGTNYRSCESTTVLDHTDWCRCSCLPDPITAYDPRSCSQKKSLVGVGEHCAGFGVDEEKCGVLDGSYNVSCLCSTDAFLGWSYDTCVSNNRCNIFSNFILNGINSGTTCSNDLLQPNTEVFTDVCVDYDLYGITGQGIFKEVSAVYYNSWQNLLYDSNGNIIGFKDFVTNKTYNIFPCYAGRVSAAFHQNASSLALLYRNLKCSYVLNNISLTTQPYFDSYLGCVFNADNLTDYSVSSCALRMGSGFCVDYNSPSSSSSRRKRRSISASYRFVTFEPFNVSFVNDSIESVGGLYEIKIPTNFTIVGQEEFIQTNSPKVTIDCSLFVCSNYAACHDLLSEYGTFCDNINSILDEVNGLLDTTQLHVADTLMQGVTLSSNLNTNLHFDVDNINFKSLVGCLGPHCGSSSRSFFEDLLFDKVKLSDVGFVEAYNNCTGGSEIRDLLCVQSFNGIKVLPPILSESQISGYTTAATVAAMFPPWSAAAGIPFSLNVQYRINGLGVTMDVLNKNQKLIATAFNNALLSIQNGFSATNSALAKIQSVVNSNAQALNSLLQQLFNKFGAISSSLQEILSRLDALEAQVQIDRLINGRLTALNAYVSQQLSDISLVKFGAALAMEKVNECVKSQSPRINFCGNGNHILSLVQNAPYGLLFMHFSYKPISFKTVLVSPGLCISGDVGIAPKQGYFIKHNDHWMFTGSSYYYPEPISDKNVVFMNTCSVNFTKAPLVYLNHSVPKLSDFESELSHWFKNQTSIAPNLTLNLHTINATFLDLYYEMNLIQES

T2: MERS full length Spike (MERS-CoV, UniProt K9N5Q8 18-1291)
T2 sequence: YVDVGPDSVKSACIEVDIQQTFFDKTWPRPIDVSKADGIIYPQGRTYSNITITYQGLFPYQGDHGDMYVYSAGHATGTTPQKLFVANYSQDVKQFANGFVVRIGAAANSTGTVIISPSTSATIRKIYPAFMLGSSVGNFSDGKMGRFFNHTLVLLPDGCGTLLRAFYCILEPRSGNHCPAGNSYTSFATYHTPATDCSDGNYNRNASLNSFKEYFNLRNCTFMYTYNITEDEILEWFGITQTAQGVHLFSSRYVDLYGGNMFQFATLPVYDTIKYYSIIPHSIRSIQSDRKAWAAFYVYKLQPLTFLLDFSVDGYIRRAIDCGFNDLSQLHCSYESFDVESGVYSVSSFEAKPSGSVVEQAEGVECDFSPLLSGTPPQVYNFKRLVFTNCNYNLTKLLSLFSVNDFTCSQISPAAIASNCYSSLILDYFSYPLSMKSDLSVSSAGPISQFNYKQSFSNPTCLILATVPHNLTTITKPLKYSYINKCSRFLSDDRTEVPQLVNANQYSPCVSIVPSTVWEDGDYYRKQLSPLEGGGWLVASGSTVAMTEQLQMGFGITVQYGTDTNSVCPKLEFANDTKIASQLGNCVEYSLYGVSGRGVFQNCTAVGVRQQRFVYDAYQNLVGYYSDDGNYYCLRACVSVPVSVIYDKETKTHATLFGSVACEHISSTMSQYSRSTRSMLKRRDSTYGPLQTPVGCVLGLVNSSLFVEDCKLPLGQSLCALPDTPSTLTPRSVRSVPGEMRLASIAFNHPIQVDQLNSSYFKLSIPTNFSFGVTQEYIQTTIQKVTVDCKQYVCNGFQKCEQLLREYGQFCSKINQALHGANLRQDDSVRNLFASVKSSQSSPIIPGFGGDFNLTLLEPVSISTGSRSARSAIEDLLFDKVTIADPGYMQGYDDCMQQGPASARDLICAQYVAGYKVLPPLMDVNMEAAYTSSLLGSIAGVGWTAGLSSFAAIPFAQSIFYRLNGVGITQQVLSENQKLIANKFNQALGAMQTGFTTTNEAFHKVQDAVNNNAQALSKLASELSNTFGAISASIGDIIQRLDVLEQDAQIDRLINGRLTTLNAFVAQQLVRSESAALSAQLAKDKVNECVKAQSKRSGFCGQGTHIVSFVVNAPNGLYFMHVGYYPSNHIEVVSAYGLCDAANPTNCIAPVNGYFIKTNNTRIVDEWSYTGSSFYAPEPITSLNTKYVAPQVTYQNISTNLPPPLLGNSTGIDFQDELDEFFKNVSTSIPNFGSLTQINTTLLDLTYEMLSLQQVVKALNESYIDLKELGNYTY

B1: mAb 970 (antibody, V domains shown)
VH: EVQLVESGGGLVQPGGSLRLSCAASGFTFSSYWMSWVRQAPGKGLEWVANINKDGSEKYYVDSVKGRFTISRDNAKNSLYLQMNSLRAEDTAVYFCARDYRYFDWLLSQIDLEIDYFDYWGQGTLVTVSS
VL: not shown
B2: mAb 896 (antibody, V domains shown)
VH: EVQLVESGGGVVQPGGSLRLSCAASGFTFDDYAMHWVRQVPGKGLEWVSLISGDGGSTYYADSVKGRFTISRDNSKNSLYVQMNSLRTEDTALYYCVKDRGGSGWDLNHYYYGMDVWGQGTTVTVSS
VL: DIQLTQSPSFLSASVGDRVTVTCRASQGISSYLAWYQQKPGKAPKLLIYAAYTLQSGVPSRFSGSGSETEFTLTISSLQPEDFATYYCQQVKSYPLTFGGGTKVEIKR
B3: mAb 936 (antibody, V domains shown)
VH: EVQLVESGGGLVQPGRSLTLSCAGSGFTFDDYAMHWVRQAPGKGLEWVSGISWNSGSIGYADSVKGRFTISRDNAKNSLYLQMNSLRAEDTALYYCAKDVSYDSSGYYNNAFDIWGQGTMVTVSS
VL: B2 VL with V21I, Y52S, E68G, V91L, K92Y, L96V, G100Q, K103R, V104L
B4: mAb 923 (antibody, V domains shown)
VH: EVQLVESGGGVVRPGGSLRLSCAASGFIFDDYDMTWVRQAPGKGLEWVSGISWNGGNTGYADSVKGRFTISRDNAKNSLYLQMNSLRAEDTALYHCAVIMSPIPRYSGYDWAGGAFDIWGQGTMVTVSS
VL: SSELTQDPAVSVALGQTVRITCQGDSLRSYYASWYQQKPGQVPILVIYDKNNRPSGIPDRFSGSSSGNTASLTITGAQAEDEADYYCNSRDSSGNAVVFGGGTKLTVLG
B5: mAb 1036 (antibody, V domains shown)
VH: QVQLVQSGAEVKKPGSSVKVSCKASGGTLSSYTISWVRQAPGQGLEWMGRIIPILGIADYAQKFQGRVTITADKSTTTAYMDLSSLGSEDTALYYCASAPKDWSSGFDYYYGMDVWGQGTMVTVSS
VL: DIVMTQTPLSLSVTPGQPASISCKSSQSLLNSDGKTYLYWYLQKAGQPPQLLIYEVSNRFSGVPERFSGSGSGTDFTLKISRVEAEDVGVYYCMQSVQLPPYTFGQGTKLEITR
B6: mAb 1015 (antibody, V domains shown)
VH: EVQLVESGGGLVQPGGSLRLSCAASGFTFSSYWMHWVRQAPGKGLVWVSHINSDGSSTSYADSVKGRFTISRDNAKNTLYLQMNSLRAEDTAVYYCARGLRYFDLDVWGQGTTVTVSS
VL: QSVLTQPPSVSEAPRQRVTISCSGSSSNIGNNAVNWYQQLPGKAPKLLIFYDDLLPSGVSDRFSGSKSGTSASLAISGLQSEDEADYYCAAWDDSLNGGVFGGGTKLTVLG
B7: mAb 894 (antibody, V domains shown)
VH: QVQLVQSGAEVKKPGASVKVSCKVSGYTLPELSIHWVRQAPGKGLEWMGGFDPENAETIYTQKFQGRLTMTEDTSTDTAYMELSSLRSEDTAMYYCATSFVLMPAALGDYSYYYGMDVWGQGTTVTVSS
VL: not shown

What follows are binders tested against T1, HKU1 full length Spike.

| Binder | median fluorescence intensity, fold over isotype control [fold over isotype] |
| --- | --- |
| B1 | 0.88 |
| B2 | 1.07 |
| B3 | 1.02 |
| B4 | 1.42 |
| B5 | 0.94 |
| B6 | 1.04 |
| B7 | 1.18 |

Each binder was assayed against SARS-CoV full length Spike (SARS-CoV, UniProt P59594 14-1190).

| Binder | median fluorescence intensity, fold over isotype control [fold over isotype] |
| --- | --- |
| B1 | 547 |
| B2 | 0.97 |
| B3 | 0.95 |
| B4 | 773 |
| B5 | 1.05 |
| B6 | 0.91 |
| B7 | 1.1 |

Each binder was assayed against T2, MERS full length Spike.

| Binder | median fluorescence intensity, fold over isotype control [fold over isotype] |
| --- | --- |
| B1 | 0.87 |
| B2 | 1.02 |
| B3 | 0.92 |
| B4 | 1.08 |
| B5 | 1.07 |
| B6 | 0.85 |
| B7 | 1.06 |
